Molecular target: rhodopsin (bovine (endogenous in bovine retina)) (UniProt P02699)
Sequence (P02699 whole entry): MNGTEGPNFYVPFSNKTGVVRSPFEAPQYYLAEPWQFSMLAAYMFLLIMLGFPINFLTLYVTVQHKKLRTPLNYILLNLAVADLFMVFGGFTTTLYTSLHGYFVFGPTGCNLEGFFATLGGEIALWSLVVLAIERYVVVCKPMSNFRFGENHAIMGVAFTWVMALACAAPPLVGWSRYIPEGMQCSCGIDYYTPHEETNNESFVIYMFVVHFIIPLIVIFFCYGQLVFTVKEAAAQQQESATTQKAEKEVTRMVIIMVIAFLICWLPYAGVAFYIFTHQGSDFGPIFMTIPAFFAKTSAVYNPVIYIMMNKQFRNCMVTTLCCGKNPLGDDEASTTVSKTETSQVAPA

Sequence of transducin, heterotrimeric G protein (Gt) (P04695 whole entry): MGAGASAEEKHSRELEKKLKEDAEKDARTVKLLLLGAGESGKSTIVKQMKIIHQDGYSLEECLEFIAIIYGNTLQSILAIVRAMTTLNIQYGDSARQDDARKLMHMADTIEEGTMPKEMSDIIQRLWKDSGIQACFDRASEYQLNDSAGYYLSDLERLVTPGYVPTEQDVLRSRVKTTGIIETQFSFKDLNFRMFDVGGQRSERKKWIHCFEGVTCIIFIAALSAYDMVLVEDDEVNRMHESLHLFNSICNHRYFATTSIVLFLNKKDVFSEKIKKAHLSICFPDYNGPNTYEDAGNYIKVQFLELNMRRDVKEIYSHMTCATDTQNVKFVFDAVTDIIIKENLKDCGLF
Sequence of transducin, heterotrimeric G protein (Gt) (P62871 whole entry): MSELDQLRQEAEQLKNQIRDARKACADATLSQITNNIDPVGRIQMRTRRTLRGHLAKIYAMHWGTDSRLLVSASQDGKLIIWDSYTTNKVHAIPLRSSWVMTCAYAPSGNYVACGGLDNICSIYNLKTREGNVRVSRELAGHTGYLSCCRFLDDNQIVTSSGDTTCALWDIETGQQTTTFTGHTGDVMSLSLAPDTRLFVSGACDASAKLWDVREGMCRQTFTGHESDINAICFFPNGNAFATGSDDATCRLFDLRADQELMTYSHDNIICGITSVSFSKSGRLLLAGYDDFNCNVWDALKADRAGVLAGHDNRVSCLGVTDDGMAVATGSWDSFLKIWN
Sequence of transducin, heterotrimeric G protein (Gt) (P02698 whole entry): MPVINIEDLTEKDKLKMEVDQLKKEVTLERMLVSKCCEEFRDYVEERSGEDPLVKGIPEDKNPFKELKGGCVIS

- ratio Gt•GDP:Gt by native MS with 90 μM compound 1, ROS membrane present, from dark (1.2) to 15 s of illumination (0.6) (ratio Gt•GDP:Gt): 1.2
- ratio Gt•GDP:Gt by native MS with 90 μM compound 6, ROS membrane present, from dark (2.0) to 15 s of illumination (0.8) (ratio Gt•GDP:Gt): 2
- ratio Gt•GDP:Gt by native MS, control without compound, ROS membrane present, from dark (4.1) to 15 s of illumination (1.2) (ratio Gt•GDP:Gt): 4.1
Substance: transducin, heterotrimeric G protein (Gt) (from UniProt P04695 1-350; P62871 1-340; P02698 1-74) (complex)
